From PMC7085345 (The Biochemical journal, 2019)
Read-outs that look alike come from different tables or passages of the source.

Columns and labels:
Assay in all cases: FRET or BRET
FRET or BRET [1] = biological target: the molecule itself
FRET or BRET [2] = biological target: the molecule itself; remark: listed apart in the source
FRET or BRET [3] = biological target: the molecule itself; remark: listed apart in the source
FRET or BRET [4] = biological target: the molecule itself; remark: listed apart in the source
FRET or BRET [5] = biological target: the molecule itself; remark: listed apart in the source

B1: CYP2E1-BODIPY(1:2): N-terminally truncated (Δ3–20), C-terminally His-tagged CYP2E1 labeled with BODIPY 577/618 maleimide at 1:2 protein-to-label ratio (enzyme, human, UniProt P05181 1-493, looked up)
chain: MSSMWRQVHSSWNLPPGPFPLPIIGNLFQLELKNIPKSFTRLAQRFGPVFTLYVGSQRMVVMHGYKAVKEALLDYKDEFSGRGDLPAFHAHRDRGIIFNNGPTWKDIRRFSLTTLRNYGMGKQGNESRIQREAHFLLEALRKTQGQPFDPTFLIGCAPCNVIADILFRKHFDYNDEKFLRLMYLFNENFHLLSTPWLQLYNNFPSFLHYLPGSHRKVIKNVAEVKEYVSERVKEHHQSLDPNCPRDLTDCLLVEMEKEKHSAERLYTMDGITVTVADLFFAGTETTSTTLRYGLLILMKYPEIEEKLHEEIDRVIGPSRIPAIKDRQEMPYMDAVVHEIQRFITLVPSNLPHEATRDTIFRGYLIPKGTVVVPTLDSVLYDNQEFPDPEKFKPEHFLNENGKFKYSDYFKPFSTGKRVCAGEGLARMELFLLLCAILQHFNLKPLVDPKDIDLSPIHIGFGCIPPRYKLCVIPRS
modifications: BODIPY 577/618 maleimide on cysteines, two molar equivalents (presumably Cys488 and Cys261, Cys268 and/or Cys480)
- (Lipid/CYP2E1)50% (FRET or BRET [1]): 393 lipid-to-P450 molar ratio
- (Lipid/CYP2E1)50% (FRET or BRET [2]): 4320 lipid-to-P450 molar ratio
- (Lipid/CYP2E1)50% (FRET or BRET [3]): 383 lipid-to-P450 molar ratio
- (Lipid/CYP2E1)50% (FRET or BRET [4]): 5890 lipid-to-P450 molar ratio
- (Lipid/CYP2E1)50% (FRET or BRET [5]): 2440 lipid-to-P450 molar ratio
